Measured values published in the supplement of paper PMC9732359.
± gives the uncertainty stated by the source.

Assay: protein stability index of a GFP-peptide fusion (yeast GPS) (PSI 1-4); higher = more stable; sorted into four equal gates, so the index is relative within each strain
Settings: doa10∆
In short: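 Tiled 17-residue peptides from yeast proteins were fused downstream of GFP on a plasmid that also expresses Cherry, and the pooled library was carried in yeast. Mid-log cultures grown in leucine-free medium were sorted into four equal gates by GFP/Cherry fluorescence ratio. Plasmids from each gate were PCR-amplified and Illumina-sequenced, and reads were assigned to strains by barcodes. Each peptide's protein stability index is the sum, over gates, of the gate's read frequency multiplied by its gate number.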

Compared with IETVDDKLKDIVGQTSR [ITC1], IEWAEHHRDSNFPDEDD [SKP1] is lower in protein stability index: 3.25 ± 0.07 for the first, 3.1 ± 0.065 for the second.

First: IFGGAGGVPTTSFGQPQ [YOR098C/NUP1]
Second: IFLHSLPVKEFQIIDTL [RPS2]
The protein stability index of the first is lower: 1.57 ± 0.061 for the first, 2.49 ± 0.12 for the second.

IFQAKRNSNPENTVGLI [RPN10] and IGGSDAAFEKRYRVDLL [RPO21] are within error of each other in protein stability index: 3.17 ± 0.1 for the first, 3.32 ± 0.074 for the second.

First: IGGSLARIALRHLEKEG [RPS25A]
Second: IGIAGAHRVRDLMDEEL [SKI6]
The protein stability index of the first is lower: 2.52 ± 0.068 for the first, 3.38 ± 0.13 for the second.

Going from IGISIVGRFSTISSADF [ECM29] to IGLPRHSLAYLLENFAN [RRP6], the protein stability index falls from 2.81 ± 0.24 to 1.67 ± 0.04.

First: IGSNGSGKSNFFAAIRF [SMC3]
Second: IGSQRGRRLSMLASQAN [DSN1]
The protein stability index of the first is higher: 3.03 ± 0.068 for the first, 1.75 ± 0.057 for the second.

Compared with IHGQDFQFFPKELDALQ [ISW2], IHLYMLTFHTLKKANII [YLR018C/POM34] is lower in protein stability index: 2.62 ± 0.048 for the first, 1.31 ± 0.051 for the second.

Compared with IHQNAGRLLRAMFEICL [BRR2], IHSKSMSVERGIRWELI [RPT1] is higher in protein stability index: 1.85 ± 0.053 for the first, 3.06 ± 0.068 for the second.

First: IHSLIPVAKWFVKFITY [SIN4]
Second: IHSMNENPTPEKGNAKM [SIR3]
The protein stability index of the first is lower: 2.7 ± 0.048 for the first, 2.94 ± 0.087 for the second.

Going from IHVLEQDGGIMGSLING [SKI6] to IIELPNEKFEIELLSLD [SRB4], the protein stability index falls from 3.45 ± 0.09 to 2.68 ± 0.056.

IIGPNGSGKSNMMDAIS [SMC1] and IIHFHSHPEKRMIPPRM [SSN3] are within error of each other in protein stability index: 3.06 ± 0.13 for the first, 3.09 ± 0.07 for the second.

First: IIKENVKVARLAGKYIP [FAS1]
Second: IINKVLDYQETYVEELF [YJL039C/NUP192]
The protein stability index of the first is lower: 1.73 ± 0.23 for the first, 2.2 ± 0.1 for the second.

Going from IINPHAIPSRMTVAHLI [RPB2] to IIVFGYPESISNELIEH [YDL088C/ASM4], the protein stability index rises from 1.79 ± 0.054 to 2.12 ± 0.066.

Compared with IKETKENDEEFYKNKYS [RPN2], IKGSKLSLGEAFKKIDA [COR1] is higher in protein stability index: 1.34 ± 0.13 for the first, 3.29 ± 0.28 for the second.

First: IKIVYALTTIKGVGRRY [RPS18A]
Second: IKVPTYIRKLISSGLLY [SRB8]
The protein stability index of the first is higher: 1.87 ± 0.12 for the first, 1.38 ± 0.048 for the second.

ILAMTYSENGKHDSLRY [RPN1] and ILDGLTVRLVNLFSSTG [SRB2] are within error of each other in protein stability index: 3.28 ± 0.23 for the first, 3.1 ± 0.15 for the second.

ILDIVINNPVNLTIHFG [FAS1] and ILECDLLICIGTSLKVA [SIR2] are within error of each other in protein stability index: 2.06 ± 0.088 for the first, 2.05 ± 0.081 for the second.

Going from ILEDFRVIKDFKKLNSK [YMR153W/NUP53] to ILEEKTDLHLPKKEYDD [NSL1], the protein stability index falls from 3.15 ± 0.11 to 1.76 ± 0.057.

Going from ILGIAGEDFAVLAGDTR [PRE7] to ILGKNFDSVIVENLTVA [SMC1], the protein stability index falls from 3.65 ± 0.22 to 2.48 ± 0.08.

First: ILKWVQWSRIVLQNVFK [MED1]
Second: ILLAGRFRGKRVVYLKH [RPL6A]
The protein stability index of the first is higher: 2.98 ± 0.087 for the first, 1.69 ± 0.078 for the second.

Compared with ILNAKYTKETYQSRGID [RPN6], ILNHIGQLTGIYRYKYK [PRP8] is lower in protein stability index: 2.96 ± 0.062 for the first, 1.39 ± 0.072 for the second.

Going from ILPTDGSAEFNVKYRAV [RPB7] to ILSSLYLLSIWVKKFKW [CYT1], the protein stability index falls from 2.57 ± 0.2 to 2.22 ± 0.091.

Compared with ILSSVNRTVLLKIFKIF [SRB8], ILSTTLDPTDDEGHVLK [SIN4] is higher in protein stability index: 1.37 ± 0.083 for the first, 2.58 ± 0.15 for the second.

Going from ILTDLVNYRHFKAMEDV [ITC1] to ILTEHLGYPPISLVDDI [MTW1], the protein stability index falls from 2.94 ± 0.14 to 2.36 ± 0.054.

ILTSKVNAIKNEVKEWA [DSN1] and ILYEIRALYTPFLLMEL [YDL116W/NUP84] are within error of each other in protein stability index: 2.64 ± 0.09 for the first, 2.66 ± 0.081 for the second.

ILYYDVLFITPDIVGHE [BRR2] and IMERIKSSLSLRDHALS [ITC1] are within error of each other in protein stability index: 2.29 ± 0.058 for the first, 2.24 ± 0.12 for the second.

Compared with IMKFQSLSDNDLAVCAT [ECM29], INDAGKAKKLIQSLPPT [RPL38] is higher in protein stability index: 2.03 ± 0.076 for the first, 2.17 ± 0.047 for the second.

First: INDIRDDDIEKQEQEEK [YCG1]
Second: INLAMNESSLALEFVSL [SRB4]
The protein stability index of the first is higher: 2.96 ± 0.082 for the first, 1.44 ± 0.088 for the second.

Compared with INNLPPEKEASSATIVL [YCG1], INSDNQNIILRSTMMKF [RPN3] is higher in protein stability index: 2.55 ± 0.16 for the first, 2.82 ± 0.092 for the second.

First: INVETVYDIMALEDEER [BRR2]
Second: INVLTDQNPIQVVVDAI [RPS5]
The protein stability index of the first is higher: 2.99 ± 0.092 for the first, 2.19 ± 0.044 for the second.

Going from IPFPDHNQSPRNTYQSA [RPB2] to IPFQTLYRSIESGEFDF [YJL039C/NUP192], the protein stability index falls from 2.97 ± 0.083 to 1.95 ± 0.061.

Compared with IPHFIDNNSSLNVSNTK [PRP8], IPIAIVLKACGILSDLE [RET1] is lower in protein stability index: 2.36 ± 0.08 for the first, 1.4 ± 0.057 for the second.

Compared with IPLDNYDDFIYLSDLKQ [PCI8], IPPDQQRLIFAGKQLED [RPS31] is higher in protein stability index: 2.11 ± 0.12 for the first, 2.92 ± 0.077 for the second.

Compared with IQKESTLHLVLRLRGGI [RPL40A], IQMNNSLQNNLQNNINN [SNF11] is higher in protein stability index: 2.48 ± 0.11 for the first, 3.35 ± 0.093 for the second.

Compared with IQRFFALHYLVPFIIAA [COB], IQRTLMELLTQMDGFDN [RPT4] is higher in protein stability index: 1.39 ± 0.052 for the first, 2.84 ± 0.12 for the second.

Compared with IQTVVISLLALPHSPLW [YML031W/NDC1], IQVFEKPFLKKTQEYYT [CDC53] is higher in protein stability index: 1.36 ± 0.076 for the first, 2.36 ± 0.073 for the second.

Going from IRDLEKLYDKTENDIKA [RPT4] to IRNIVEAAAVRDLSEAS [RPS26A], the protein stability index falls from 2.66 ± 0.18 to 2.07 ± 0.066.

First: IRQDVNLGRAVFWEIQS [PRP8]
Second: ISFAIYSALNSTYLPKL [RRP42]
The protein stability index of the first is higher: 3.04 ± 0.069 for the first, 2.1 ± 0.054 for the second.

ISFLEPINLKFLQGESP [YMR129W/POM152] and ISGNPPLLYNSLCTVWK [SRB5] are within error of each other in protein stability index: 2.6 ± 0.073 for the first, 2.56 ± 0.051 for the second.

Going from ISKRKEELEEEFRKKLK [YIL149C/MLP2] to ISLLCKNFKGIEEIEYN [PCI8], the protein stability index falls from 3.49 ± 0.11 to 2.94 ± 0.082.

ISLVDDIINAVNEIMYK [MTW1] and ISRERDLFTHLWNQWLK [SRP68] are within error of each other in protein stability index: 2.9 ± 0.073 for the first, 3.04 ± 0.12 for the second.

First: ISRNGDTSYKIDGKTVS [SMC1]
Second: ISSSAIPYSRNAPAWFK [RPS13]
The protein stability index of the first is higher: 2.72 ± 0.14 for the first, 2.33 ± 0.09 for the second.

ISTLFQRDRHTLAYDRG [PRP8] and ISWCSLSETNGLHKFVK [PRE10] are within error of each other in protein stability index: 2.58 ± 0.14 for the first, 2.38 ± 0.089 for the second.

First: ITGEDEVLCSRIIEKSV [RRP45]
Second: ITHNTNITDNLFQELSK [GRR1]
The protein stability index of the first is lower: 2 ± 0.051 for the first, 3.27 ± 0.091 for the second.

Going from ITLLPSSLKESSPDTMK [SNF12] to ITQMRVNDEEEHKQLVA [RPC82], the protein stability index rises from 2.96 ± 0.19 to 3.29 ± 0.13.

First: ITRLCQTLGLESFTEEL [MED1]
Second: ITRSVMRFNIEIIADWI [BRR2]
The protein stability index of the first is lower: 2.54 ± 0.054 for the first, 3.04 ± 0.071 for the second.

Going from IVAKYDPPIIIFINYKQ [PRP28] to IVAQSEVEVSTRDLFDL [RPO31], the protein stability index rises from 2.47 ± 0.075 to 3.07 ± 0.074.

Going from IVDDYWESLAKKQNLSS [SWP82] to IVEQDKSMELFYDIRSL [YJL039C/NUP192], the protein stability index falls from 2.91 ± 0.073 to 2.34 ± 0.13.

IVHHPYQSLKQIVQVLK [SSN8] gave a protein stability index of 1.24 ± 0.061.

Same assay, conditions: pdr5∆

Work on IETVDDKLKDIVGQTSR [ITC1] yielded a protein stability index of 3.01 ± 0.075.
